One molecule from patent publication US20170210824A1 can be followed below.

For this experiment, the target named is 3-pTza peptide library (Ac-Cys.G/A.G/A.G/A.G/A.X.G/A.G/A.G/A.G/A-CONH2, X = 3-pTza). The experiment can be described thus: 3-pTza peptide dot blot array.

B1: 3-pHis mAb SC44-8 (antibody, V domains shown)
VH: ESGRGLVQPGGSLTLTCTASGFSIDSYGFSWVRQAPGKGLEHIGYLTAGGRAFYASWAKSRSTITRNTNENTVTLKMTSLTAADTATYFCAKLGSGNPVAIWGPGTLVTVSS
VL: DPVMTPTPSFTSAAVGGTVTINCQSSQSVWRNKNLAWYQQKPGQPPKRLIYAIATLDSGVPSRFSGSGSGTQFTLTISDVQCDDAATYYCVGHYGSENDAYYAFGGGTEVVVKG
Molecule B1 came in with a lowest amount detected of 800 pg.
